{"source": "paper PMC2265111", "about": "(The EMBO Journal, 2008)", "proteins": {"B1": {"name": "Rap1GAP Q204A (75–415) (domain or fragment)", "chain": "not shown"}}, "biological_target": "the molecule itself", "assay": "crystal structure"}
{"protein": "B1", "values": [{"measurement": "stoichiometry N", "value": 2}]}
